Experimental data reported in the supplement of paper PMC7877785.
± gives the uncertainty stated by the source.

Test: self-splicing fitness, log relative to wild type (ln ratio); higher = more splicing; Tetrahymena group I intron in knt gene, E. coli kanamycin selection, DiMSum; sequences stand for … in CUCUCU…GGAGGGAAAAGUUAUCAGGCAUGCACCUGGUAGCUAGUCUUUAAACCAAUAGAUUGCAUCGGUUUAAAAGGCAAGACCGUCAAAUUGCGGGAAAGGGGUCAACAGCCGUUCAGUACCAAGUCUCAGGGGAAACUUUGAGAUGGCCUUGCAAAGGGUAUGGUAAUAAGCUGACGGACAUGGUCCUAACCACGCAGCCAAGUCCUAAGUCAACAGAUCUUCUGUUGAUAUGGAUGCAGUUCACAGACUAAAUGUCGGUCGGGGAAGAUGUAUUCUUCUCAUAAGAUAUAGUCGGACCUCUCCUUAAUGGGAGCUAGCGGAUGAAGUGAUGCAACACUGGAGCCGCUGGGAACUAAUUUGUAUGCGAAAGUAUAUUGAUUAGUUUUGGAGUACUCGUGGUCG
In short: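 A randomised library covering all eight P1ex-region intron nucleotides was built with the intron in the knt kanamycin-resistance gene on pET-22b(+) and held in E. coli BL21(DE3). Cells were grown overnight at 37°C or 30°C on LB agar, with or without 25 μg/mL kanamycin, plus 100 μg/mL carbenicillin, 50 μM IPTG and 0.2% rhamnose, and pooled colonies were amplicon-sequenced on an Illumina HiSeq 2500. DiMSum fitness is the error-weighted combination of wild-type-normalised replicate fold changes, kanamycin versus none.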

Sequence	self-splicing fitness (ln) (30 °C)	self-splicing fitness (ln) (37 °C)
CGUUAGCAAUAUUACGUGGA	-2.98 ± 0.18	-1.68 ± 0.13
CGUUAGCAAUAUUACGUUAC	-2.82 ± 0.32	-2.83 ± 0.43
CGUUAGCAAUAUUACGUUGA	-3.1 ± 0.22	-2.25 ± 0.17
CUAAAGCAAUAUUACGAACG	0.195 ± 0.089	0.868 ± 0.12
CUAAAGCAAUAUUACGACGA	-2.38 ± 0.13	-0.919 ± 0.15
CUAAAGCAAUAUUACGACUG	0.0292 ± 0.098	0.417 ± 0.12
CUAAAGCAAUAUUACGAGGC	-3.6 ± 0.16	-1.92 ± 0.16
CUAAAGCAAUAUUACGAUCA	-2.12 ± 0.18	-0.711 ± 0.22
CUAAAGCAAUAUUACGCGAC	-0.482 ± 0.14	-0.124 ± 0.17
CUAAAGCAAUAUUACGCGCA	-2.92 ± 0.23	-1.64 ± 0.33
CUAAAGCAAUAUUACGCUGA	-3.03 ± 0.18	-2.95 ± 0.29
CUAAAGCAAUAUUACGCUUA	-3.75 ± 0.37	-2.75 ± 0.39
CUAAAGCAAUAUUACGCUUU	-4.2 ± 0.33	-2.35 ± 0.29
CUAAAGCAAUAUUACGGAGG	-1.82 ± 0.1	0.0636 ± 0.12
CUAAAGCAAUAUUACGGCAC	-2.96 ± 0.22	
CUAAAGCAAUAUUACGGCUC	-3.26 ± 0.4	
CUAAAGCAAUAUUACGGGCG	-0.0163 ± 0.069	-0.208 ± 0.081
CUAAAGCAAUAUUACGGGUU	-4.13 ± 0.28	-3.49 ± 0.33
CUAAAGCAAUAUUACGGUAU	-3.53 ± 0.16	-2.58 ± 0.17

Sequence	self-splicing fitness (ln) (30 °C)	self-splicing fitness (ln) (37 °C)
CUAAAGCAAUAUUACGGUCA	-2.46 ± 0.18	-1.22 ± 0.2
CUAAAGCAAUAUUACGGUUU	-3.29 ± 0.2	-2.81 ± 0.28
CUAAAGCAAUAUUACGUACA	-2.52 ± 0.14	-0.872 ± 0.18
CUAAAGCAAUAUUACGUGCG	-0.674 ± 0.093	0.0651 ± 0.12
CUAAAGCAAUAUUACGUUCG	0.342 ± 0.064	0.478 ± 0.082
CUAAAGCAAUAUUACGUUGC	-3.49 ± 0.18	-2.45 ± 0.22
CUACAGCAAUAUUACGAAAU	-3.72 ± 0.16	-2.82 ± 0.17
CUACAGCAAUAUUACGAGUC	-3.63 ± 0.24	-3.18 ± 0.38
CUACAGCAAUAUUACGAUAA	-3.02 ± 0.15	-1.49 ± 0.12
CUACAGCAAUAUUACGAUAG	-2.04 ± 0.12	-1.16 ± 0.12
CUACAGCAAUAUUACGAUGG	-1.44 ± 0.053	-0.971 ± 0.077
CUACAGCAAUAUUACGCGCG	-1.36 ± 0.082	-0.796 ± 0.11
CUACAGCAAUAUUACGGCCA	-3 ± 0.28	
CUACAGCAAUAUUACGGGGA	-3.52 ± 0.26	-1.79 ± 0.16
CUACAGCAAUAUUACGGGGU	-3.62 ± 0.12	-2.34 ± 0.14
CUACAGCAAUAUUACGGGUC	-4.01 ± 0.23	-2.44 ± 0.21
CUACAGCAAUAUUACGGUAC	-2.81 ± 0.13	-1.13 ± 0.18
CUACAGCAAUAUUACGUACC	-3.08 ± 0.41	-1.72 ± 0.43
CUACAGCAAUAUUACGUCGA	-3.59 ± 0.22	-3.7 ± 0.3
